Test results reported in paper PMC4197961 (Genes & Development, 2014).
Ends that are not written are not given here. Me2 = dimethyl (dimethyl-lysine)

Columns and labels:
[1] = target: truncated KDM2A construct (36–517) lacking the 1–35 and 365–449 peptide segments (UniProt Q9Y2K7)
KDM2A K323A/F324A = target: T1, KDM2A K323A/F324A (UniProt Q9Y2K7 1-1162, K323A | F324A); test: cell-based or functional assay
T1 sequence (looked up): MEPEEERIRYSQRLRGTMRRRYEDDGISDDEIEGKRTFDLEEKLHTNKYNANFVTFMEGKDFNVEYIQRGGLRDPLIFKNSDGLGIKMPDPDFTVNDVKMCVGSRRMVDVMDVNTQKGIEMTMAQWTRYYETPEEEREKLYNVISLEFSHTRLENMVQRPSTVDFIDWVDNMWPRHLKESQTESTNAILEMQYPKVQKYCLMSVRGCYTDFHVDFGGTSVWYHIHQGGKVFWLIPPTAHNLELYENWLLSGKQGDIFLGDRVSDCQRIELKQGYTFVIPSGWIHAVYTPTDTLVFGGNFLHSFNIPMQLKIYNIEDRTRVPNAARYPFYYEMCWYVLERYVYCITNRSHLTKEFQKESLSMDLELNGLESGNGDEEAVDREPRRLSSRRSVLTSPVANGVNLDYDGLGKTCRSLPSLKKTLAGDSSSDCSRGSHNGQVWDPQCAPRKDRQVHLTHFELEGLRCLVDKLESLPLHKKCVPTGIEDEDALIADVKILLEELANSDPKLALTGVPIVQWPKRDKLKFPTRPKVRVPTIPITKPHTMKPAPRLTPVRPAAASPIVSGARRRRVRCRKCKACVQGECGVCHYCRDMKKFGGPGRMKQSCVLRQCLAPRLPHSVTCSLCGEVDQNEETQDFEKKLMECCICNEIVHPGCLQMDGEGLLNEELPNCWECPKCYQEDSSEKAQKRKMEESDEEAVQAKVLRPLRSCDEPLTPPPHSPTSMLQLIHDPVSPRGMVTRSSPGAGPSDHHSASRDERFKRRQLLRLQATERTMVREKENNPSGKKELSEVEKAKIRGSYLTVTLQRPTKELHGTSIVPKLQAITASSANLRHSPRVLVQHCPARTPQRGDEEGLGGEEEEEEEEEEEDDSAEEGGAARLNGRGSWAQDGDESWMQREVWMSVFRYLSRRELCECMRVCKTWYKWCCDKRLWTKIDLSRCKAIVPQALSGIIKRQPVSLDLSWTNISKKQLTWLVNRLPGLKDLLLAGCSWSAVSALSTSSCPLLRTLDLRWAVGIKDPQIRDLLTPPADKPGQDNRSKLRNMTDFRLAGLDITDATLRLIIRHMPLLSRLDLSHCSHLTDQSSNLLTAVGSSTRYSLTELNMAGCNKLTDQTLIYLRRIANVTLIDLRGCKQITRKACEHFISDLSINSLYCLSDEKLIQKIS

KDM2A N186A = target: T2, KDM2A N186A (UniProt Q9Y2K7 1-1162, N186A); test: cell-based or functional assay
T2 sequence (looked up): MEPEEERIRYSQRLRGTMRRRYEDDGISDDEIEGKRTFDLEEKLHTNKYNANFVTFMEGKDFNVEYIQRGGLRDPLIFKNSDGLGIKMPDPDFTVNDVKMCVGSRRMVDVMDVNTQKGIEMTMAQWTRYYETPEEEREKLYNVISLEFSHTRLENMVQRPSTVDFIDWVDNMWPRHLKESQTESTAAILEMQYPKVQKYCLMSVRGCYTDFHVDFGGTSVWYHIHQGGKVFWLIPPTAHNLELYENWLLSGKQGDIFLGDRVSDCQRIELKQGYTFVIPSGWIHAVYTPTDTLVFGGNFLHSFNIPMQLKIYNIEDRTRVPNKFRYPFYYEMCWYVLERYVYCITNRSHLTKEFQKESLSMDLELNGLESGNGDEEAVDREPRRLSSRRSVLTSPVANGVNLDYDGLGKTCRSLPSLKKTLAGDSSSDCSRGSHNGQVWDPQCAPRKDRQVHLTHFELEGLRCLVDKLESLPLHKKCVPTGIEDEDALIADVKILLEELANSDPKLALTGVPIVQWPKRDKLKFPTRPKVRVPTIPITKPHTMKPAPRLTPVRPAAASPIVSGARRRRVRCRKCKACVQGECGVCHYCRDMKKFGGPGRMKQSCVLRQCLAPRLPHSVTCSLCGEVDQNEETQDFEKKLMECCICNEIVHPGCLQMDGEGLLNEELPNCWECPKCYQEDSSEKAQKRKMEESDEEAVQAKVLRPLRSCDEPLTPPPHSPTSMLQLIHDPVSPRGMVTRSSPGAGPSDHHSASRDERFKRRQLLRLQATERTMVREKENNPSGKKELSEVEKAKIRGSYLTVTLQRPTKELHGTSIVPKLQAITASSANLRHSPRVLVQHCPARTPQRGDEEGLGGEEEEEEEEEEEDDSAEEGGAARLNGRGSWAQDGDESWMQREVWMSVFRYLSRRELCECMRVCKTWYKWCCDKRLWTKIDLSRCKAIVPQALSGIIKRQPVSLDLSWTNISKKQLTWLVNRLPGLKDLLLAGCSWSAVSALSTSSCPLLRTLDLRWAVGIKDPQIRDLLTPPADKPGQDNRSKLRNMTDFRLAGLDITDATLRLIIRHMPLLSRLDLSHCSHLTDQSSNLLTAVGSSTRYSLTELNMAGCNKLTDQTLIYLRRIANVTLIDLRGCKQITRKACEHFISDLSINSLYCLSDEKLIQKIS

demethylation of the mutant H3K36me2 peptide by wild-type KDM2A in vitro [1] [fold]	H3K36me2 demethylation activity in vitro, fluorescence-based assay (KDM2A K323A/F324A) [fold reduction]	H3K36me2 demethylation activity in vitro, fluorescence-based assay (KDM2A N186A) [fold reduction]	Molecule
< 2			H3K36me2 peptide Y41A
	~3	~3	APATGGVK(Me2)KPHRY [H3(A29–Y41)K36me2 peptide]
